This is an account of results in PMC8687462 (bioRxiv, 2021).

Data set [1] deals with HSPB6-nhpSer16 (UniProt O14558). Description: SEC-MALS. Particulars: scale: 14-3-3 chains per HSPB6 chain. In general terms: Size exclusion chromatography separates by hydrodynamic size, large species first.
The target in data set [2] is HSPB6-pSer16 (UniProt O14558). In words: SEC-MALS. Conditions: scale: 14-3-3 chains per HSPB6 chain.
In data set [3] the target is HSPB6-nhpSer16 (UniProt O14558). In words: AUC.
The target of data set [4] is HSPB6-pSer16 (UniProt O14558). Description: AUC.
The data set “SEC-MALS” deals with the molecule itself. Description: SEC-MALS.

HSPB6-pSer16, sequence (O14558 whole entry): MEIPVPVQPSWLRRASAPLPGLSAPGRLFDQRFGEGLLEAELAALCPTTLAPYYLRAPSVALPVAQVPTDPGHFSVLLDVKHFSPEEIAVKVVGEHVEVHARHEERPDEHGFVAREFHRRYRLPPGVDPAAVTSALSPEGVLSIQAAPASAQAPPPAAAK

Usually stoichiometry N stands for a count of units in the complex or per binding partner. As usually defined, the Kd is a measure of binding affinity in units of concentration. On to “14-3-3ζ (untagged, co-expressed with His-tagged HSPB6) (from UniProt P63104 1-230) (natural protein)”, for which the stoichiometry N with HSPB6-nhpSer16 [1] and with HSPB6-pSer16 [2] was 1 throughout. Moreover, the Kd with HSPB6-nhpSer16 [3] was found to be 120 nM; in the data set with HSPB6-pSer16 [4] it was 92 nM.

B1: 14-3-3ζ S58E (natural protein)
chain: MDKNELVQKAKLAEQAERYDDMAACMKSVTEQGAELSNEERNLLSVAYKNVVGARRSEWRVVSSIEQKTEGAEKKQQMAREYREKIETELRDICNDVLSLLEKFLIPNASQAESKVFYLKMKGDYYRYLAEVAAGDDKKGIVDQSQQAYQEAFEISKKEMQPTHPIRLGLALNFSVFYYEILNSPEKACSLAKTAFDEAIAELDTLSEESYKDSTLIMQLLRDNLTLWTS
Regarding B1, in the data set “SEC-MALS”, the “stoichiometry N” value came to 2.
